{
  "source": "paper PMC7949131",
  "key": {"[1]": {"biological_target": "rat HA-NK1R (neurokinin 1 receptor) (rat) (UniProt P14600)", "sequence (P14600 whole entry)": "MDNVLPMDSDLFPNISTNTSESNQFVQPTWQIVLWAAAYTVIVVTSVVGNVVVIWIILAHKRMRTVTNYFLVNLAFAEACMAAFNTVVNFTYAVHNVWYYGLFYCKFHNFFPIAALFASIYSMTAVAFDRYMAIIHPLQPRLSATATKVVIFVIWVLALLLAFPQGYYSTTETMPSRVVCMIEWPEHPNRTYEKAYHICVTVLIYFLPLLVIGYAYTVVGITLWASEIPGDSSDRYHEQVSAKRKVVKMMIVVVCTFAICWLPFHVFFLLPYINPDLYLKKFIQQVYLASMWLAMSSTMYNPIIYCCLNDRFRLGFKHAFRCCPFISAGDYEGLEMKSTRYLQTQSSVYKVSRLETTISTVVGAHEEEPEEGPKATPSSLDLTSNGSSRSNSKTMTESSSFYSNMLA", "assay": "high-content imaging fluorescent competition binding on cells; HEK-NK1R cells in 96-well plates, increasing concentrations of Span or Span-Chol with 0.5 nM SP-TAMRA, 30 min in total, 37°C; granularity analysis, total cell binding (cell surface and intracellular); competitive binding, one site, fit logIC50"}, "[2]": {"biological_target": "rat HA-NK1R (neurokinin 1 receptor) (rat) (UniProt P14600)", "assay": "high-content imaging fluorescent competition binding on cells; HEK-NK1R cells in 96-well plates, preincubated with Span or Span-Chol for 3.5 h, then 0.5 nM SP-TAMRA for a further 30 min (4 h in total), 37°C; granularity analysis, total cell binding (cell surface and intracellular); competitive binding, one site, fit logIC50"}, "[3]": {"biological_target": "rat HA-NK1R (neurokinin 1 receptor) (rat) (UniProt P14600)"}, "[4]": {"biological_target": "rat HA-NK1R (neurokinin 1 receptor) (rat) (UniProt P14600)", "remark": "listed apart in the source"}, "[5]": {"biological_target": "rat HA-NK1R (neurokinin 1 receptor) (rat) (UniProt P14600)", "remark": "listed apart in the source"}},
  "data": [
    {"substance": "Spantide I (peptide)", "values": [
      {"measurement": "pIC50", "setting": "[1]", "value": 5.99},
      {"measurement": "pIC50", "setting": "[2]", "value": 5.55},
      {"measurement": "inhibition of Ca^2+ transients to 1 nM SP in HEK-NK1R cells, 30 min preincubation with antagonist (blocks SP with NK1R); pIC50", "setting": "[3]", "value": 4.87},
      {"measurement": "inhibition of Ca^2+ transients to 1 nM SP in HEK-NK1R cells, continuous 4 h incubation with antagonist (blocks SP with NK1R); pIC50", "setting": "[4]", "value": 5.11}
    ]},
    {"substance": "Spantide I conjugated to cholestanol via PEG linker (Span-Chol) (peptide)", "values": [
      {"measurement": "pIC50", "setting": "[1]", "value": 6.28},
      {"measurement": "inhibition of Ca^2+ transients to 1 nM SP in HEK-NK1R cells, pulsed administration (30 min antagonist, wash, 3.5 h; 4 h total) (blocks SP with NK1R); pIC50", "setting": "[5]", "value": 6.15},
      {"measurement": "pIC50", "setting": "[2]", "value": 6.5},
      {"measurement": "inhibition of Ca^2+ transients to 1 nM SP in HEK-NK1R cells, 30 min preincubation with antagonist (blocks SP with NK1R); pIC50", "setting": "[3]", "value": 6.25},
      {"measurement": "inhibition of Ca^2+ transients to 1 nM SP in HEK-NK1R cells, continuous 4 h incubation with antagonist (blocks SP with NK1R); pIC50", "setting": "[4]", "value": 6.36}
    ]}
  ]
}
